Results published in patent publication US20120309692A1.

Molecular target: recombinant human glandular kallikrein 2 (hK2) (human) (UniProt P20151)
Experiment: cell-based or functional assay

B1: α1-antichymotrypsin (ACT) (protein, human, UniProt P01011 24-423, looked up)
chain: HPNSPLDEENLTQENQDRGTHVDLGLASANVDFAFSLYKQLVLKAPDKNVIFSPLSISTALAFLSLGAHNTTLTEILKGLKFNLTETSEAEIHQSFQHLLRTLNQSSDELQLSMGNAMFVKEQLSLLDRFTEDAKRLYGSEAFATDFQDSAAAKKLINDYVKNGTRGKITDLIKDLDSQTMMVLVNYIFFKAKWEMPFDPQDTHQSRFYLSKKKWVMVPMMSLHHLTIPYFRDEELSCTVVELKYTGNASALFILPDQDKMEEVEAMLLPETLKRWRDSLEFREIGELYLPKFSISRDYNLNDILLQLGIEEAFTSKADLSGITGARNLAVSQVVHKAVLDVFEEGTEASAATAVKITLLSALVETRTIVRFNRPFLMIIVPTDTQNIFFMSKVTNPKQA
hK2 Activity (%) of inhibitor-free control, inhibitor at 0.8 µM: 100%

B2: protein C inhibitor (PCI) (protein, UniProt P05154 20-406, looked up)
chain: HRHHPREMKKRVEDLHVGATVAPSSRRDFTFDLYRALASAAPSQSIFFSPVSISMSLAMLSLGAGSSTKMQILEGLGLNLQKSSEKELHRGFQQLLQELNQPRDGFQLSLGNALFTDLVVDLQDTFVSAMKTLYLADTFPTNFRDSAGAMKQINDYVAKQTKGKIVDLLKNLDSNAVVIMVNYIFFKAKWETSFNHKGTQEQDFYVTSETVVRVPMMSREDQYHYLLDRNLSCRVVGVPYQGNATALFILPSEGKMQQVENGLSEKTLRKWLKMFKKRQLELYLPKFSIEGSYQLEKVLPSLGISNVFTSHADLSGISNHSNIQVSEMVHKAVVEVDESGTRAAAATGTIFTFRSARLNSQRLVFNRPFLMFIVDNNILFLGKVNRP
hK2 Activity (%) of inhibitor-free control, inhibitor at 0.016 µM: 50%
hK2 Activity (%) of inhibitor-free control, inhibitor at 0.08 µM: 0%

B3: PSTI (protein, UniProt P00995 24-79, looked up)
chain: DSLGREAKCYNELNGCTKIYDPVCGTDGNTYPNECVLCFENRKRQTSILIQKSGPC
hK2 Activity (%) of inhibitor-free control, inhibitor at 0.08 µM: 100%
hK2 Activity (%) of inhibitor-free control, inhibitor at 4 µM: 89%
